This note sets out measurements from US20250361297A1, “ANTI- SIGLEC-15 BINDING MOLECULES AND METHODS OF USE” (ADAPTAM THERAPEUTICS, S.L., priority 2024, published 2025).

Test [1] deals with T1, human Siglec-15 (Homo sapiens, UniProt Q6ZMC9).
T1 construct: expressed in transfected cells
T1 sequence (Q6ZMC9 20-328): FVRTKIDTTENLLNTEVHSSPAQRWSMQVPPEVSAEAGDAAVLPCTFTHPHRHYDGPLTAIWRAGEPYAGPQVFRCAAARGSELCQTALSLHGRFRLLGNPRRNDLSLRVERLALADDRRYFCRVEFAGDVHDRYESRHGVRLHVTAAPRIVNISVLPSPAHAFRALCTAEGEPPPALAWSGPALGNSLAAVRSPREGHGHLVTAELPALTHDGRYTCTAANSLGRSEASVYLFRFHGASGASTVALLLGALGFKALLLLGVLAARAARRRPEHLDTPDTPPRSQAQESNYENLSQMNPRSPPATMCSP
Kind of test: Titration of full-length IgG1 antibodies on human Siglec-15 (ELISA / flow cytometry on MOLM-13 Siglec-15 cells). In kind it is binding. The following applies: full-length human IgG1, titrated from 10 μg/ml. As for the experimental part:
The binding efficacy of the converted full-length IgG1 anti-Siglec-15 antibodies was then evaluated using both ELISA and flow cytometry. By immobilizing the antigen and titrating the antibodies starting at a concentration of 10 μg/ml, binding kinetics were determined via ELISA, using an anti-human IgG Fab-specific secondary antibody for detection. Palivizumab served as the negative control in these assays (FIG. 8A). Complementary to the ELISA, flow cytometry assays provided insight into the binding behavior of the antibodies on the cell surface. […] From these assays, EC50 values were calculated, offering a quantitative measure of the antibodies' affinity towards Siglec-15, and leading to the selection of 7 unique hits (Table 10).
For the ELISA, antigens were immobilized on high-binding plates, and the full-length IgG1 anti-Siglec-15 antibodies were titrated beginning at a concentration of 10 μg/ml. […] Optical densities were measured to generate binding curves from which EC50 values were derived. […] Flow cytometric analysis was conducted, and fluorescence intensity was used to calculate EC50 values, providing a quantitative assessment of the antibodies' cell surface binding efficacy. […] Antibodies were titrated starting at a concentration of 10 μg/ml and detected with an anti-human Fc-specific secondary antibody to detect bound primary antibodies. […]
A general note: An ELISA detects its analyte on a solid surface through an enzyme-linked reagent.

A further test has as its target T2, mouse Siglec-15 (Mus musculus, UniProt A7E1W8).
T2 construct: HEK293T cells were genetically engineered to express full-length mouse Siglec-15; expressed in transfected cells; host or cells: HEK293T
T2 sequence (A7E1W8 24-342): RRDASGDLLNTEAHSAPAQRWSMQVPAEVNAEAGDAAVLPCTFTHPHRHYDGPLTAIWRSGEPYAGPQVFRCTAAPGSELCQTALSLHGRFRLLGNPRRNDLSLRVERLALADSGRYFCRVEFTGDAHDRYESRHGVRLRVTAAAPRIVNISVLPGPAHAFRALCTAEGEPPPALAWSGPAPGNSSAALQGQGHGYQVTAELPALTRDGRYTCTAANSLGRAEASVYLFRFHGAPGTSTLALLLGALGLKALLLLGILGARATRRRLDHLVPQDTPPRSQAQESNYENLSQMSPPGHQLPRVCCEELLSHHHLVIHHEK
Kind of test: Titration on HEK293T cells expressing mouse Siglec-15 (flow cytometry). In kind it is binding. The following applies: titrated from 10 μg/ml. As for the experimental part:
Cross-species reactivity and domain-specific binding of the full-length anti-Siglec-15 antibody candidates were evaluated. The antibodies were titrated against HEK293T cells expressing mouse Siglec-15 or HEK293T cells expressing a truncated human Siglec-15 consisting solely of domain 2 (FIG. 9). […] However, the binding to mouse Siglec-15 was evident for all tested antibodies, with EC50 values calculated to rank the affinity of the antibodies.
For the ELISA, antigens were immobilized on high-binding plates, and the full-length IgG1 anti-Siglec-15 antibodies were titrated beginning at a concentration of 10 μg/ml. After washing, an anti-human IgG Fab-specific HRP-conjugated secondary antibody was applied for detection. […] Optical densities were measured to generate binding curves from which EC50 values were derived. […] Flow cytometric analysis was conducted, and fluorescence intensity was used to calculate EC50 values, providing a quantitative assessment of the antibodies' cell surface binding efficacy. […] Antibodies were titrated starting at a concentration of 10 μg/ml and detected with an anti-human Fc-specific secondary antibody to detect bound primary antibodies. The half-maximal effective concentration (EC50) was calculated for each antibody to determine its binding affinity to mouse Siglec-15. Results were analyzed and ranked based on the EC50 values.
(In flow cytometry, cells or beads pass a laser one at a time.)

The target in test [2] is T1, human Siglec-15. Nature of the test: Competitive flow cytometry assay with benchmark antibodies. In kind it is binding. On the procedure: Epitope mapping assay by Flow cytometry: Competition with benchmark mouse IgG antibodies: 50,000 cells/well of THP-1 S15 OE were added to a round bottom 96 well plate, and centrifuged at 450×G for 5 minutes, and the supernatant was discarded. Human anti-siglec-15 IgG antibodies (starting at 198 nM, 3-fold serial dilution in staining buffer) were added to 100 μl of staining buffer and cells were resuspended with it and incubated for 40 minutes on ice. 100 μl of staining buffer were added to wells, centrifuged at 450× G for 5 minutes and the supernatants discarded. Benchmark mouse IgG antibodies were diluted at 33.3 nM and cells resuspended in 100 μl of the mix and incubated for 40 minutes on ice. Then, 100 μl of staining buffer were added to wells, centrifuged at 450×G for 5 minutes and the supernatants discarded. The secondary antibody anti-mouse IgG-Alexa647 was prepared at 1:200 dilution in 100 μl of staining buffer and added to each well, and cells were incubated for 40 minutes on ice. Cells were washed with 100 μl of staining buffer and centrifuged at 450×G for 5 minutes to discard the supernatant. Cells were resuspended in 150 μl of staining buffer and acquired in a flow cytometer.

In another test the test system is Siglec-15 positive cells. Nature of the test: Internalization assay (Zenon pHrodo iFL Green). The following applies: kinetics over 1, 2, 4, 16, and 24 hours. In kind it is cell-based. On the procedure:
Internalization assay (Zhenon pHrodo): Sufficient volumes of 4× working solution of anti-Siglec-15 antibodies (10 nM) were prepared in cell culture medium for a total of 25 μL for each well of a 96-well plate. A working solution of Zenon™ pHrodo™ iFL IgG Labeling Reagent was prepared at 30 nM and 25 μL were added to each well. The mix was incubated for 5 minutes at room temperature to allow the labeling complexes to form. 5 mL of suspension cells at 2×10^6 cells/mL in cell culture medium were prepared and 50 μL of cells were added to each well of the 96-well plate containing the mix of anti-Siglec-15 antibody and the Zenon™ labeling reagent. Cells were incubated with the labeling complex for different timepoints (1-24 hours) under standard cell culture conditions. Fluorescence was analyzed by flow cytometry.

B1: ZLA-1243-E01: fully human anti-Siglec-15 IgG1, silenced Fc, phage display; VH SEQ ID NO: 34, VL SEQ ID NO: 35 (antibody, V domains shown)
VH: QVQLVQSGGGLVQPGRSLRLSCAASGFTFDDYAMHWVRQAPGKGLEWVSGISWNSGSIGYADSVKGRFTISRDNAKNSLYLQMNSLRAEDTALYYCAKGLWPSYDLDAFDIWGQGTMVTVSS
VL: QSALTQPASVSGSPGQSITLSCTGTSSDVGAYNFVSWYQQHPGTAPKLMIYEVSNRPSGVSDRFSGSKSGNTASLTISGLQAEDEADYYCSSYTSTIPPFVFGTGTKVTVL
modifications: IgG1 silenced Fc; ZLA-1243-E01 VH; ZLA-1243-E01 VL
As for B1, the “EC50 (ng/mL) hS15” value in the test with human Siglec-15 [1] was 174.3 ng/mL. Also, the “EC50 (ng/mL) mS15” value with mouse Siglec-15 amounted to 84.88 ng/mL. Besides, the “inhibition of binding of A2A5C7E8 (benchmark 2)” value with human Siglec-15 [2] (across all concentrations (FIG. 18D)) was “outperformed 5G12”. Moreover, the “inhibition of binding of 5G12 (benchmark 1)” value with human Siglec-15 [2] (at concentrations above 10 nM (FIG. 18C)) is “outperformed A2A5C7E8”. Moreover, in the test on Siglec-15 positive cells, the “internalization, fold increase over isotype control” value is on record as “approximately 6 fold”.
